Assay results published in publication PMC8486843, “SPOP mutation induces replication over-firing by impairing Geminin ubiquitination and triggers replication catastrophe upon ATR inhibition” (Nature Communications, 2021).

Experiments:
SPOP MATH (D140G mutant) = biological target: T1, SPOP MATH (D140G mutant) (human, UniProt O43791 28-166, D140G); assay: crystal structure; 1.1 mM SPOP MATH D140G with 5.5 mM Geminin peptide; sitting drop, 22 °C; 3.4 Å; settings: both partners purified
T1 construct: SPOP, human, MATH domain, residues 28-166, D140G; Purified 'using the same protocol' as the 15N-labeled MATH domain 28-166; also called SPOP-MATH domain (D140G mutant)
T1 sequence (O43791 28-166 D140G): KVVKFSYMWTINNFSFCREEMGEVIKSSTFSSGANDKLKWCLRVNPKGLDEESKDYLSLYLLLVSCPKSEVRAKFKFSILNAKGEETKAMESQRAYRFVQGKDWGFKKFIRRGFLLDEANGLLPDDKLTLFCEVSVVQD

[1] = biological target: T2, 15N-labeled SPOP MATH domain (amino acids 28-166) (human, UniProt O43791 28-166, 15N-labeled); assay: NMR titration; 1H-15N HSQC of 0.2 mM 15N-labeled SPOP MATH titrated with up to 3-fold molar excess of unlabeled peptide; 298 K; phosphate buffer, 50 mM NaCl, 5 mM DTT, pH 6.0; settings: both partners purified
T2 construct: SPOP, human, MATH domain, residues 28-166; Hexahistidine tag cleaved with PreScission protease
T2 sequence (O43791 28-166): as the sequence (O43791 28-166 D140G) above, with G113D counted along it

binding result (SPOP MATH (D140G mutant)): binds | binding result [1]: binds
B1: Geminin WT SBC-containing peptide (amino acids 195-209) (peptide)
peptide: AEGTVSSSTDAKPCI
notes: Geminin, human, residues 195-209; also called Geminin peptide; Geminin wild-type SBC peptide; source: synthetic peptide
